Results from article PMC5384083.

B1: T7 tagged FoxM1 wild type (WT) [not stated] / Retinoblastoma protein (Rb), endogenous [human (endogenous in MCF7 and MDA-MB-453)] (parent)
chain 1: MKTSPRRPLILKRRRLPLPVQNAPSETSEEEPKRSPAQQESNQAEASKEVAESNSCKFPAGIKIINHPTMPNTQVVAIPNNANIHSIITALTAKGKESGSSGPNKFILISCGGAPTQPPGLRPQTQTSYDAKRTEVTLETLGPKPAARDVNLPRPPGALCEQKRETCADGEAAGCTINNSLSNIQWLRKMSSDGLGSRSIKQEMEEKENCHLEQRQVKVEEPSRPSASWQNSVSERPPYSYMAMIQFAINSTERKRMTLKDIYTWIEDHFPYFKHIAKPGWKNSIRHNLSLHDMFVRETSANGKVSFWTIHPSANRYLTLDQVFKQQKRPNPELRRNMTIKTELPLGARRKMKPLLPRVSSYLVPIQFPVNQSLVLQPSVKVPLPLAASLMSSELARHSKRVRIAPKVLLAEEGIAPLSSAGPGKEEKLLFGEGFSPLLPVQTIKEEEIQPGEEMPHLARPIKVESPPLEEWPSPAPSFKEESSHSWEDSSQSPTPRPKKSYSGLRSPTRCVSEMLVIQHRERRERSRSRRKQHLLPPCVDEPELLFSEGPSTSRWAAELPFPADSSDPASQLSYSQEVGGPFKTPIKETLPISSTPSKSVLPRTPESWRLTPPAKVGGLDFSPVQTSQGASDPLPDPLGLMDLSTTPLQSAPPLESPQRLLSSEPLDLISVPFGNSSPSDIDVPKPGSPEPQVSGLAANRSLTEGLVLDTMNDSLSKILLDISFPGLDEDPLGPDNINWSQFIPELQ
chain 2: MPPKTPRKTAATAAAAAAEPPAPPPPPPPEEDPEQDSGPEDLPLVRLEFEETEEPDFTALCQKLKIPDHVRERAWLTWEKVSSVDGVLGGYIQKKKELWGICIFIAAVDLDEMSFTFTELQKNIEISVHKFFNLLKEIDTSTKVDNAMSRLLKKYDVLFALFSKLERTCELIYLTQPSSSISTEINSALVLKVSWITFLLAKGEVLQMEDDLVISFQLMLCVLDYFIKLSPPMLLKEPYKTAVIPINGSPRTPRRGQNRSARIAKQLENDTRIIEVLCKEHECNIDEVKNVYFKNFIPFMNSLGLVTSNGLPEVENLSKRYEEIYLKNKDLDARLFLDHDKTLQTDSIDSFETQRTPRKSNLDEEVNVIPPHTPVRTVMNTIQQLMMILNSASDQPSENLISYFNNCTVNPKESILKRVKDIGYIFKEKFAKAVGQGCVEIGSQRYKLGVRLYYRVMESMLKSEEERLSIQNFSKLLNDNIFHMSLLACALEVVMATYSRSTSQNLDSGTDLSFPWILNVLNLKAFDFYKVIESFIKAEGNLTREMIKHLERCEHRIMESLAWLSDSPLFDLIKQSKDREGPTDHLESACPLNLPLQNNHTAADMYLSPVRSPKKKGSTTRVNSTANAETQATSAFQTQKPLKSTSLSLFYKKVYRLAYLRLNTLCERLLSEHPELEHIIWTLFQHTLQNEYELMRDRHLDQIMMCSMYGICKVKNIDLKFKIIVTAYKDLPHAVQETFKRVLIKEEEYDSIIVFYNSVFMQRLKTNILQYASTRPPTLSPIPHIPRSPYKFPSSPLRIPGGNIYISPLKSPYKISEGLPTPTKMTPRSRILVSIGESFGTSEKFQKINQMVCNSDRVLKRSAEGSNPPKPLKKLRFDIEGSDEADGSKHLPGESKFQQKLAEMTSTRTRMQKQKMNDSMDTSNKEEK
B2: T7 tagged FoxM1 wild type (WT) [not stated] / DNMT3b, endogenous [human (endogenous in MCF7 and MDA-MB-453)] (parent)
chain 1: B1 chain 1
chain 2: not shown

Variants of: B1
Assay: co-immunoprecipitation (IP T7, western blot Rb), band intensity given
Details: with Retinoblastoma protein (Rb), MDA-MB-453 cells, cell lysates (800 ug)

response	Variant
22.8	chain 1 T596A
0.09	chain 1 S715D S724D

Variants of: B2
Assay: co-immunoprecipitation (IP T7, western blot DNMT3b), band intensity given
Details: with DNMT3b, MDA-MB-453 cells

response	Variant
10	chain 1 S715D S724D
132	chain 1 T596A
